Data on 1 substance can be found in PMC2568807.

For the assay, the target named is ovine CRY1 (Cryptochrome 1), Flag-tagged (sheep).

Regarding “ovine Fbxl21 full-length, Myc-tagged (from UniProt B3FL73 1-434) (natural protein)”, the attenuation of oCRY1 repression of oCLK/oBM1-induced oRev-erb alpha luciferase reporter transactivation in COS7 cells (100 or 200 ng Fbxl vector) was found to be 75%.
